Experiment [1] concerns the target α-syn NAC (α-syn 57–102) (human) (UniProt P37840).
The target of experiment [2] is α-syn ΔC (α-synuclein A53T deletion mutant lacking most of the C-terminal part) (human).
Experiment [3] has as its target α-synuclein A53T amyloid fibres (human) (UniProt P37840). Kind of experiment: co-sedimentation; purified fibres (3.5 μM at monomer concentration) with 0.7 μM CCT or GroEL in 25 mM Tris pH 7.4, 5 mM MgCl2, 150 mM NaCl, 10% glycerol, 30 min, room temperature; 141,000 xg, 60 min, 4 °C; pellet and supernatant on SDS-PAGE, Coomassie, ImageJ.

The source of these data is publication PMC5244355.

chaperonin CCT (chaperonin containing TCP-1), bovine testis, sequence (Q3MHL7 whole entry, looked up): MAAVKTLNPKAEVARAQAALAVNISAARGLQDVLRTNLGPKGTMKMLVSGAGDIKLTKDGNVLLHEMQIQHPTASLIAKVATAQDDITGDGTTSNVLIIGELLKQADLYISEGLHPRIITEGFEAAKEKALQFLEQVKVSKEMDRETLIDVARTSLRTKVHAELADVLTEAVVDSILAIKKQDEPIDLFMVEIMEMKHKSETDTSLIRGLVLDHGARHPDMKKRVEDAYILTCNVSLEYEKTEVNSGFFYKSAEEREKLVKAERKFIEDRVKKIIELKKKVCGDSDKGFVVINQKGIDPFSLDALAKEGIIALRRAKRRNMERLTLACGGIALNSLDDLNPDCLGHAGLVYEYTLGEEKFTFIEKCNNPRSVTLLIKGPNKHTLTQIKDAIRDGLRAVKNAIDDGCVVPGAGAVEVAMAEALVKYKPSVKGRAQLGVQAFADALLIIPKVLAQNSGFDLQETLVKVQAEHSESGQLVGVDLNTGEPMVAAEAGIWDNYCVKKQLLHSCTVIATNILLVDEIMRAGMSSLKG
chaperonin CCT (chaperonin containing TCP-1), bovine testis, sequence (Q3T0K2 whole entry, looked up): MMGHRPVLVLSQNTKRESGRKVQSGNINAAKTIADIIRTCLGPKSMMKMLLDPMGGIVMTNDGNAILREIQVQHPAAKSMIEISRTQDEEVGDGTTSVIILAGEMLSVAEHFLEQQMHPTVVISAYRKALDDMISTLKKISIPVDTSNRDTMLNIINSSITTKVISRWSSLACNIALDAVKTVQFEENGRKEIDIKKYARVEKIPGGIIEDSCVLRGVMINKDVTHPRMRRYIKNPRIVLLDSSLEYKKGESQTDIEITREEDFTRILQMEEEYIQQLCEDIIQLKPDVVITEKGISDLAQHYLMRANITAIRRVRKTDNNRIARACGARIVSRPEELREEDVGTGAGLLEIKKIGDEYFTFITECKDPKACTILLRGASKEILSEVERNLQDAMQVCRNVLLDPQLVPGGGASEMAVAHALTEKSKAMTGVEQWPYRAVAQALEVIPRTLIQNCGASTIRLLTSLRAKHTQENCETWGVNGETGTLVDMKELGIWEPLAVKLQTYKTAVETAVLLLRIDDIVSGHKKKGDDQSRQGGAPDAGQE
chaperonin CCT (chaperonin containing TCP-1), bovine testis, sequence (Q3ZBH0 whole entry, looked up): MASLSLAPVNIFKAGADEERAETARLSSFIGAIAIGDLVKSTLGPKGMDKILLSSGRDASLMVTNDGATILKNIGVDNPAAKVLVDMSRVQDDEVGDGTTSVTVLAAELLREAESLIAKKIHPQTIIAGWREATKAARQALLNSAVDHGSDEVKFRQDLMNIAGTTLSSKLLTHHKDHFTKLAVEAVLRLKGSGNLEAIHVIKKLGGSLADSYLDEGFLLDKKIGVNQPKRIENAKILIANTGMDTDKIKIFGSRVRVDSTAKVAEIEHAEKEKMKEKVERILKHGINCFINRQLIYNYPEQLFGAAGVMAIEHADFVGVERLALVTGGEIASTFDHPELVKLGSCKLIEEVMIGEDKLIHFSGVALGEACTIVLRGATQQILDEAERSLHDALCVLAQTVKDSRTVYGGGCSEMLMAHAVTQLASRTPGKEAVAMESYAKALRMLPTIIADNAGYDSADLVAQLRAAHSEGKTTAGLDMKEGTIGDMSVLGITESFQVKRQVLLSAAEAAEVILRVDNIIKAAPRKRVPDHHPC
chaperonin CCT (chaperonin containing TCP-1), bovine testis, sequence (Q32L40 whole entry, looked up): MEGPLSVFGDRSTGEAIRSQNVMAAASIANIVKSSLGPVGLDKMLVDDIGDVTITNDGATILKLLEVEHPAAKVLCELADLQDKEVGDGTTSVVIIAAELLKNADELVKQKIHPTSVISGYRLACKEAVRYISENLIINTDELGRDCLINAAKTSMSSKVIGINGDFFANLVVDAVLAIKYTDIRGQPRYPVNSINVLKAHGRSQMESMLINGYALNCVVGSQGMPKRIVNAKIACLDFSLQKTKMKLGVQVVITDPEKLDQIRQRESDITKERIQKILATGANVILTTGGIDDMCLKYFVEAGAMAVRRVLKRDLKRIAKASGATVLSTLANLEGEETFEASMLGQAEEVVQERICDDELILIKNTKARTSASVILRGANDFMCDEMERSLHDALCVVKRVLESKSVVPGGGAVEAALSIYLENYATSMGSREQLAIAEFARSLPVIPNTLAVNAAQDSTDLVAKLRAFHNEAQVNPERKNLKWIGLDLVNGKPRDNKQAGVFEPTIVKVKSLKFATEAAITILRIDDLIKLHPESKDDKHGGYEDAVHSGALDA

For “chaperonin CCT (chaperonin containing TCP-1), bovine testis (from UniProt Q32L40 1-556; Q3ZBH0 1-535; Q3T0K2 1-545; Q3MHL7 1-531) (complex)”, the percentage of α-syn NAC fibres (ThT fluorescence) with ADP and CCT at a molar ratio of 1:50 CCT:deletion mutant in experiment [1] amounted to 38%. Moreover, the percentage of α-syn ΔC fibres (ThT fluorescence) with ADP and CCT: 33% at a molar ratio of 1:10, 58% at 1:50 in experiment [2] was determined as 58%.

In experiment [3], “chaperonin CCT (chaperonin containing TCP-1), bovine testis, Q32L40 1-556; Q3ZBH0 1-535; Q3T0K2 1-545; Q3MHL7 1-531” yielded a percent of CCT cosedimented with fibres of less than 60%.
